Source: paper PMC5855135 (Chemical Science, 2017)

Experiments:
[1] = biological target: T1, CcpA (SaCcpA) (Staphylococcus aureus Newman) (UniProt P99175); assay: EMSA; details: BLI: 25 mM Tris-HNO3, 80 mM NaNO3, 35 mM KNO3, 10 mM Mg(NO3)2, 0.1% Triton X-100, 10% glycerol, 0.1% BSA, 0.01% Tween 20, pH 7.5, 37 C; EMSA: 35 nM DNA in …
T1 sequence: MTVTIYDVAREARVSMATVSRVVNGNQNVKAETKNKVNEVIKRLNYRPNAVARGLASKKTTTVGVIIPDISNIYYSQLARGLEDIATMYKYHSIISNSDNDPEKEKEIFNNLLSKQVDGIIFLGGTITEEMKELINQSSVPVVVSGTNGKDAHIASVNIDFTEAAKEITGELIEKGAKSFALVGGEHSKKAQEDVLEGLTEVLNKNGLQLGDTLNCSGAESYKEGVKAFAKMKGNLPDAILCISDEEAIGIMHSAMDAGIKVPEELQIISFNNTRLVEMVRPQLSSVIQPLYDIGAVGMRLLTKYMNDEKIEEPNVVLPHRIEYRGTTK

[2] = system: CcpA2CS (Staphylococcus aureus Newman); assay: BLI; details: BLI: 25 mM Tris-HNO3, 80 mM NaNO3, 35 mM KNO3, 10 mM Mg(NO3)2, 0.1% Triton X-100, 10% glycerol, 0.1% BSA, 0.01% Tween 20, pH 7.5, 37 C; EMSA: 35 nM DNA in …
[3] = system: CcpA (SaCcpA) (Staphylococcus aureus Newman); assay: BLI; details: no Ag+; 10 mM Mg2+; BLI: 25 mM Tris-HNO3, 80 mM NaNO3, 35 mM KNO3, 10 mM Mg(NO3)2, 0.1% Triton X-100, 10% glycerol, 0.1% BSA, 0.01% Tween 20, pH 7.5, 37 C; EMSA: 35 nM DNA in …
[4] = system: CcpA2CS (Staphylococcus aureus Newman); assay: BLI; details: BLI: 25 mM Tris-HNO3, 80 mM NaNO3, 35 mM KNO3, 10 mM Mg(NO3)2, 0.1% Triton X-100, 10% glycerol, 0.1% BSA, 0.01% Tween 20, pH 7.5, 37 C; EMSA: 35 nM DNA in …; remark: listed apart in the source
[5] = biological target: the molecule itself; assay: SEC; size-exclusion chromatography of purified CcpA pre-incubated with Ag+ (0.6, 1.2, 2.0 molar equivalents; CcpA^2CS with 2.0)
[6] = biological target: the molecule itself; assay: SEC; size-exclusion chromatography of purified CcpA without Ag+

ACTCGTACCACCAGTCACTATAAAATGTTGTCCTTTCATCAATTAACCTTCCTTTTCAATTATATAGAATGCAATTTATCAACTTTACATAATTGAGACAAGTTGATTATCTTTCCTAATATATATACAATAATAAGAAAATATAACATACAAATCAAAAACTAAAGGGATGTGACGTTAATGAAACTCG (double strand) [proC probe]
binding [1]: no binding

biotinylated pckA promoter probe
Kd [2]: 20.7 nM | Kd [3]: 16.1 nM | Kd [4]: 15.1 nM

B1: Staphylococcus aureus catabolite control protein A (CcpA), wild type (natural protein, UniProt Q5HF38 1-329, looked up)
chain: MTVTIYDVAREARVSMATVSRVVNGNQNVKAETKNKVNEVIKRLNYRPNAVARGLASKKTTTVGVIIPDISNIYYSQLARGLEDIATMYKYHSIISNSDNDPEKEKEIFNNLLSKQVDGIIFLGGTITEEMKELINQSSVPVVVSGTNGKDAHIASVNIDFTEAAKEITGELIEKGAKSFALVGGEHSKKAQEDVLEGLTEVLNKNGLQLGDTLNCSGAESYKEGVKAFAKMKGNLPDAILCISDEEAIGIMHSAMDAGIKVPEELQIISFNNTRLVEMVRPQLSSVIQPLYDIGAVGMRLLTKYMNDEKIEEPNVVLPHRIEYRGTTK
notes: catabolite control protein A (CcpA) of Staphylococcus aureus; has two cysteines, Cys216 and Cys242; Dimer by SEC without Ag+; written as the protomer for the rows of self-association; Host, tags and limits are in the ESI; also called SaCcpA; WT CcpA
stoichiometry N [5]: 4 | stoichiometry N [6]: 2

B2: Staphylococcus aureus CcpA C242S mutant (natural protein)
chain: MTVTIYDVAREARVSMATVSRVVNGNQNVKAETKNKVNEVIKRLNYRPNAVARGLASKKTTTVGVIIPDISNIYYSQLARGLEDIATMYKYHSIISNSDNDPEKEKEIFNNLLSKQVDGIIFLGGTITEEMKELINQSSVPVVVSGTNGKDAHIASVNIDFTEAAKEITGELIEKGAKSFALVGGEHSKKAQEDVLEGLTEVLNKNGLQLGDTLNCSGAESYKEGVKAFAKMKGNLPDAILSISDEEAIGIMHSAMDAGIKVPEELQIISFNNTRLVEMVRPQLSSVIQPLYDIGAVGMRLLTKYMNDEKIEEPNVVLPHRIEYRGTTK
stoichiometry N [5]: 4

B3: Staphylococcus aureus CcpA C216S mutant (natural protein)
chain: MTVTIYDVAREARVSMATVSRVVNGNQNVKAETKNKVNEVIKRLNYRPNAVARGLASKKTTTVGVIIPDISNIYYSQLARGLEDIATMYKYHSIISNSDNDPEKEKEIFNNLLSKQVDGIIFLGGTITEEMKELINQSSVPVVVSGTNGKDAHIASVNIDFTEAAKEITGELIEKGAKSFALVGGEHSKKAQEDVLEGLTEVLNKNGLQLGDTLNSSGAESYKEGVKAFAKMKGNLPDAILCISDEEAIGIMHSAMDAGIKVPEELQIISFNNTRLVEMVRPQLSSVIQPLYDIGAVGMRLLTKYMNDEKIEEPNVVLPHRIEYRGTTK
stoichiometry N [5]: 4
